# Experimental data reported in publication PMC5240526, “ATPase activity tightly regulates RecA nucleofilaments to promote homologous recombination”.
# B1: TMR-ss175mer (ssDNA)
# DNA: TCGTCTTTGGTATGTAGGTGGTCAACAATTTTAATTGCAGGGGCTTCGGCCCCTTACTTGAGGATAAATTATGTCTAATATTCAAACTGGCGCCGAGCGTATGCCGCATGACCTTTCCCATCTTGGCTTCCTTGCTGGTCAGATTGGTCGTCTTATTACCATTTCAACTACTCCG
# B2: TMR-ss83mer (ssDNA)
# DNA: TTTCCTACCTTAAGATCCTTCCAGTCTCCGCCGGCCAGTGTTACCCTTAGAGCTCATACCATTCGCCAATTTCTTCGCACGTT
# B3: ss83mer (ssDNA)
# DNA: B2 DNA
# Tests used:
# RecA wild type [1] = molecular target: T1, RecA wild type (Escherichia coli, UniProt P0A7G6 2-353); test: CE-LIFP; 0.01-3.0 mM ATP; 16 uM RecA; five complexes; 20 mM Tris-HCl pH 7.4, 10 mM Mg2+, 10 nM oligo, 0-3.0 uM RecA, 37 C 10 min; CE in 25 mM Tris, 192 mM glycine, 0.5 mM Ca2+, pH 8.3, room temperature; settings: protein: recombinant; label: 5'-TMR
# RecA wild type [2] = molecular target: T1, RecA wild type; test: CE-LIFP; ATP, 10 mM Mg2+; 3.0 uM RecA; mainly unsaturated filament; 20 mM Tris-HCl pH 7.4, 10 mM Mg2+, 10 nM oligo, 0-3.0 uM RecA, 37 C 10 min; CE in 25 mM Tris, 192 mM glycine, 0.5 mM Ca2+, pH 8.3, room temperature; settings: protein: recombinant; label: 5'-TMR
# RecA wild type [3] = molecular target: T1, RecA wild type; test: CE-LIFP; 0.01-3.0 mM ATP; 16 uM RecA; four complexes; 20 mM Tris-HCl pH 7.4, 10 mM Mg2+, 10 nM oligo, 0-3.0 uM RecA, 37 C 10 min; CE in 25 mM Tris, 192 mM glycine, 0.5 mM Ca2+, pH 8.3, room temperature; settings: protein: recombinant; label: 5'-TMR
# RecA wild type [4] = molecular target: T1, RecA wild type; test: CE-LIFP; ATP, 10 mM Mg2+; six complexes (1-6 RecA), mainly 1:4 DNA:RecA at 1.0 mM ATP; 20 mM Tris-HCl pH 7.4, 10 mM Mg2+, 10 nM oligo, 0-3.0 uM RecA, 37 C 10 min; CE in 25 mM Tris, 192 mM glycine, 0.5 mM Ca2+, pH 8.3, room temperature; settings: protein: recombinant; label: 5'-TMR
# RecA wild type [5] = molecular target: T1, RecA wild type; test: CE-LIFP; 0.1 mM ATPgS, 10 mM Mg2+; 3.0 uM RecA; saturated filament; 20 mM Tris-HCl pH 7.4, 10 mM Mg2+, 10 nM oligo, 0-3.0 uM RecA, 37 C 10 min; CE in 25 mM Tris, 192 mM glycine, 0.5 mM Ca2+, pH 8.3, room temperature; settings: protein: recombinant; label: 5'-TMR
# RecA wild type [6] = molecular target: T1, RecA wild type; test: electron microscopy; 0.1 mM ATPgS; 3.0 uM RecA, 300 nM DNA; saturated filament; 20 mM Tris-HCl pH 7.4, 10 mM Mg2+, 10 nM oligo, 0-3.0 uM RecA, 37 C 10 min; CE in 25 mM Tris, 192 mM glycine, 0.5 mM Ca2+, pH 8.3, room temperature; settings: protein: recombinant
# T1 sequence (P0A7G6 2-353): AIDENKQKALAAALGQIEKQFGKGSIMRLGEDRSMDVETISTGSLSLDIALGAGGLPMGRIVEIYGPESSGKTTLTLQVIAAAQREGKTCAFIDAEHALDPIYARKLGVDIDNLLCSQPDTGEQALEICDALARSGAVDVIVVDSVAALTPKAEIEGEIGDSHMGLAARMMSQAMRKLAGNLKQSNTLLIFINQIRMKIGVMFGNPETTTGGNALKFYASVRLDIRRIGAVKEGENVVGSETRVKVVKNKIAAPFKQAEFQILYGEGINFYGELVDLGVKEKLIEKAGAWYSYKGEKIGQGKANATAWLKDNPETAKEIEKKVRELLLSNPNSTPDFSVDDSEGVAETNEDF
binder,measurement,setting,value
TTTTTTTTTTTTTTT (ssDNA) [TMR-T15],binding result,RecA wild type [1],binds
B1,binding result,RecA wild type [2],binds
TTTTTTTTTTTT (ssDNA) [TMR-T12],binding result,RecA wild type [3],binds
TTTTTTTTTTTTTTTTTT (ssDNA) [TMR-T18],binding result,RecA wild type [4],binds
B2,binding result,RecA wild type [5],binds
B3,binding result,RecA wild type [6],binds
